Data: patent publication US20090158455A1, “COMPOSITIONS AND METHODS FOR MODULATING LYSINE PRODUCTION” (priority 2005, published 2009)

Key:
N[C@@H](CCC(=O)O)C(=O)O [1] = test: purified protein, by the assay type; conditions: other: forward assay
[2] = tested on: N[C@@H](CCC[C@H](N)C(=O)O)C(=O)O; test: purified protein, by the assay type; conditions: other: reverse assay
[3] = tested on: O=C(O)C1=N[C@H](C(=O)O)CCC1; test: purified protein, by the assay type; conditions: other: forward assay
O=C(O)CCC(=O)C(=O)O = test: purified protein, by the assay type; conditions: other: reverse assay
N[C@@H](CCC(=O)O)C(=O)O [4] = test: Quantitative forward and reverse assays of purified LL-DAP transaminases (Example III); type: biochemical, Desulfitobacterium hafniense DCB-2; conditions: other: forward assay
Protocol: (§1) This plasmid was transformed into E. coli BL21-CodonPlus®-RIPL for expression and purification of the recombinant protein.
(§2) For protein expression the E. coli strains were grown on LB at 37° C. to an OD600 nm of 0.5 and protein expression was then induced with 1 mM IPTG for 4 hr at 25° C. Cells were lysed by sonication in a solution of 50 mM sodium phosphate and 300 mM NaCl (pH 8.0). Metabolites in the extract were removed by buffer exchange using an Amicon Ultra 30,000 MWCO ultrafilter and sodium phosphate/NaCl buffer, and the concentrated soluble protein sample was used for measurement of enzyme activity as an initial assessment of enzyme function. When the recombinant protein was to be purified a larger cell culture was grown and lysed as described above, but the buffer exchange step was not carried out. […] The pure protein was then concentrated in an Amicon Ultra 30,000 MWCO ultrafilter, replacing the elution buffer with 100 mM HepesKOH, pH 7.6.

[5] = tested on: O=C(O)C1=N[C@H](C(=O)O)CCC1; test: as above; type: biochemical, Desulfitobacterium hafniense DCB-2; conditions: other: forward assay
Protocol: as §1, §2

Substance	Km (N[C@@H](CCC(=O)O)C(=O)O [1]; pH 7.5, 30° C., apparent Km) [µM]	Km ([2]; pH 7.5, 30° C., apparent Km) [µM]	Km ([3]; pH 7.5, 30° C., apparent Km) [µM]	Km (O=C(O)CCC(=O)C(=O)O; pH 7.5, 30° C., apparent Km, pH 7.5, 30.0 °C) [µM]	Km [2] [µM]	Km (O=C(O)CCC(=O)C(=O)O) [µM]	Km (N[C@@H](CCC(=O)O)C(=O)O [4]) [µM]	Km [5] [µM]	Km (N[C@@H](CCC(=O)O)C(=O)O [1]) [µM]	Km [3] [µM]
Chlamydia trachomatis LL-DAP aminotransferase CT390 (ct390), His-Tag fusion, SEQ ID NO: 9 (Chlamydia trachomatis D/UW-3/CX)	1000	20	200	650	–	–	–	–	–	–
Desulfitobacterium hafniense LL-DAP transaminase Dhaf_3890 (Desulfitobacterium hafniense DCB-2)	–	–	–	–	41	300	800	70	–	–
Methanothermobacter thermautotrophicus LL-DAP transaminase MTH52 (Methanothermobacter thermautotrophicus str. Delta H)	–	–	–	–	30	–	–	–	3000	75
Synechocystis sp. PCC 6803 LL-DAP transaminase sll0480 (Synechocystis sp. PCC 6803 substr. Kazusa)	–	–	–	–	17	310	–	–	1500	13
